Experimental data from patent US20200157212A1 (Pfizer, published 2020).
Blank lines part the entries; values can stand above or below the binder they belong to.

Columns and labels:
[1] = target: T1, Human ROBO2 KSR mutant overexpressed on HEK293 cells (human, UniProt Q9HCK4 22-1378); assay: mutagenesis study
T1 construct: R100K and K102R already in the entry
T1 sequence: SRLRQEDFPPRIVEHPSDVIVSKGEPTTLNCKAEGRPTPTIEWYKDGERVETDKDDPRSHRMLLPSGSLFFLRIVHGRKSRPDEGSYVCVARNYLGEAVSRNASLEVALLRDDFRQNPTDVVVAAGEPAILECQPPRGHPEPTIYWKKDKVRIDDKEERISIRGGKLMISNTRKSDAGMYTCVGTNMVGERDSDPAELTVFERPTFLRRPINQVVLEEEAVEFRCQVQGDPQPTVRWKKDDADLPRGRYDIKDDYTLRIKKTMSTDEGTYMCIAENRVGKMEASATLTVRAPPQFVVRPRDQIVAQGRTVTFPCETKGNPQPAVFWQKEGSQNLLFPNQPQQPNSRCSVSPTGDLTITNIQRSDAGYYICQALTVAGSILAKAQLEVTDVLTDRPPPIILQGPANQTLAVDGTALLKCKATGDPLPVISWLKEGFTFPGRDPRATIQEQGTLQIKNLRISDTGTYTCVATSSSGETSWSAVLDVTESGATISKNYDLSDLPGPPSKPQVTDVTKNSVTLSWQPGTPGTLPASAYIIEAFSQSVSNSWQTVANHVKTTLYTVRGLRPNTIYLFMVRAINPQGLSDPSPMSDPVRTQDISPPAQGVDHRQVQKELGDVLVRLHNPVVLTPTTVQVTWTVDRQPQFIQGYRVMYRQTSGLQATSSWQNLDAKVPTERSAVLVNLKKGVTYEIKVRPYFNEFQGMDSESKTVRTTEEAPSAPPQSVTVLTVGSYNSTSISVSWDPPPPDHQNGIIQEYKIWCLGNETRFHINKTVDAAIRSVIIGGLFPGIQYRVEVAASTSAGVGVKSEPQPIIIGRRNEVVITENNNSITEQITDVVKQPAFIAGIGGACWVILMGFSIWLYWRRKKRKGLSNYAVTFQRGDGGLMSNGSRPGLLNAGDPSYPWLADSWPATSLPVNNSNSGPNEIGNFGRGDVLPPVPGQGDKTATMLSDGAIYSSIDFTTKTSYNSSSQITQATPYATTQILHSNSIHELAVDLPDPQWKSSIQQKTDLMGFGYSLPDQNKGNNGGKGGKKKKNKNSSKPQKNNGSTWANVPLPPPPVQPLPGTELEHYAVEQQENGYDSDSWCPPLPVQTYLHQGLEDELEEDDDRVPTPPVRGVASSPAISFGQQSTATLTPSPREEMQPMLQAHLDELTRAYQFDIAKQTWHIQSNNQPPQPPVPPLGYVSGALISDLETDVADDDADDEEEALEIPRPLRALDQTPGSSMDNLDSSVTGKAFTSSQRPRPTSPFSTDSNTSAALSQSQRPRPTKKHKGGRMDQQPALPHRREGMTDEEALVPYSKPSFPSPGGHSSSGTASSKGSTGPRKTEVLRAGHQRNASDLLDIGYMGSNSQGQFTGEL

[2] = target: T2, Human ROBO1 RSK mutant overexpressed on HEK293 cells (human, UniProt Q9Y6N7 26-1651); assay: flow cytometry, Geo MFI ROBO1-RSK/ROBO2-KSR HEK293 cells, 0.1 µg/ml
T2 construct: K137R and R139K already in the entry; also called ROBO1-RSK cells

[3] = target: T3, Human ROBO2 Ig1-Ig2-His (human, UniProt Q9HCK4 31-220); assay: SPR (Biacore T200), Abcs35 immobilized on a CM5 chip, ROBO2 Ig1-Ig2-His as analyte; column head kdis(1/s)
T3 construct: the His tag is named only in the SPR paragraphs; the Octet and ELISA paragraphs print 'ROBO2 Ig1-Ig2' without a tag; also called ROBO2 Ig1-2; Human ROBO2 Ig 1,2
T3 sequence: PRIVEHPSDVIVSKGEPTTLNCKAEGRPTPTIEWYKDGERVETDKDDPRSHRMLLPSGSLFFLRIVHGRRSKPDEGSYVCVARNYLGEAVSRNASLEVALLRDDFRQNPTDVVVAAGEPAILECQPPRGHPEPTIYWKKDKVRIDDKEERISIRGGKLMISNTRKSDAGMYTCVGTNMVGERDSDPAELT
Experimental: […] Association and dissociation were followed over time.
Based upon several criteria, Abcs25 and Abcs35 were selected for further characterization. Using flow cytometry, improvement in the binding EC₅₀ to human ROBO2 relative to the parental 93H2 was evaluated. Starting at 6.7 nM, 11-point, 3-fold dilution series were made for each antibody and used to stain HEK293 overexpressing human ROBO2 as described above for the ROBO2 fold selectivity (Example 2). […] In addition to measuring improved binding to human ROBO2, it was important to ensure that high affinity binding to both cynomolgus monkey ROBO2 and rat ROBO2 was maintained. Using HEK293 cells overexpressing either cynomolgus monkey ROBO2 or rat ROBO2, the relative dose-dependent binding of 93H2, Abcs25 and Abcs35 was evaluated as described above. High affinity binding to both cynomolgus monkey and rat ROBO2 was maintained in Abcs25 and Abcs35 (Table 4). […] Briefly, Abcs35 was immobilized to 300 resonance units (RU) on a CM5 chip. Association of ROBO2 Ig1-Ig2-His (ROBO2) was measured over 5 minutes and dissociation was followed for a period of 10 minutes.

[4] = target: T1, Human ROBO2 KSR mutant overexpressed on …; assay: flow cytometry on HEK293 cells overexpressing the ROBO2-KSR mutant
Experimental: The binding profile of Abcs35-J compared to Abcs35 was determined for human ROBO2, orthologs from cynomolgus monkey and rat, human ROBO1 and specificity for the RSK epitope from ROBO2 but not KSR from ROBO1. Binding was assessed by flow cytometry as described in Examples 2 (homolog specificity), Example 3 (ortholog reactivity) and Example 5 (RSK vs KSR epitope specificity). […] Binding of the antibodies was detected using a secondary fluorochrome conjugated anti-human IgG F(ab′)₂ antibody and samples analyzed on a Fortessa cytometer (BD Biosciences). […] FIGS. 16A-16F depicts binding profiles of Abcs35 (black circles) or Abcs35-J (grey squares) to human ROBO2 (FIG. 16A), cynomolgus monkey ROBO2 (FIG. 16B), rat ROBO2 (FIG. 16C), human ROBO1 (FIG. 16D), ROBO1 containing the ROBO2 RSK epitope (FIG. 16E) or ROBO2 containing the ROBO1 KSR epitope (FIG. 16 F).

T2 sequence (Q9Y6N7 other isoform, or with tags, fused parts or gaps mutant limits assumed): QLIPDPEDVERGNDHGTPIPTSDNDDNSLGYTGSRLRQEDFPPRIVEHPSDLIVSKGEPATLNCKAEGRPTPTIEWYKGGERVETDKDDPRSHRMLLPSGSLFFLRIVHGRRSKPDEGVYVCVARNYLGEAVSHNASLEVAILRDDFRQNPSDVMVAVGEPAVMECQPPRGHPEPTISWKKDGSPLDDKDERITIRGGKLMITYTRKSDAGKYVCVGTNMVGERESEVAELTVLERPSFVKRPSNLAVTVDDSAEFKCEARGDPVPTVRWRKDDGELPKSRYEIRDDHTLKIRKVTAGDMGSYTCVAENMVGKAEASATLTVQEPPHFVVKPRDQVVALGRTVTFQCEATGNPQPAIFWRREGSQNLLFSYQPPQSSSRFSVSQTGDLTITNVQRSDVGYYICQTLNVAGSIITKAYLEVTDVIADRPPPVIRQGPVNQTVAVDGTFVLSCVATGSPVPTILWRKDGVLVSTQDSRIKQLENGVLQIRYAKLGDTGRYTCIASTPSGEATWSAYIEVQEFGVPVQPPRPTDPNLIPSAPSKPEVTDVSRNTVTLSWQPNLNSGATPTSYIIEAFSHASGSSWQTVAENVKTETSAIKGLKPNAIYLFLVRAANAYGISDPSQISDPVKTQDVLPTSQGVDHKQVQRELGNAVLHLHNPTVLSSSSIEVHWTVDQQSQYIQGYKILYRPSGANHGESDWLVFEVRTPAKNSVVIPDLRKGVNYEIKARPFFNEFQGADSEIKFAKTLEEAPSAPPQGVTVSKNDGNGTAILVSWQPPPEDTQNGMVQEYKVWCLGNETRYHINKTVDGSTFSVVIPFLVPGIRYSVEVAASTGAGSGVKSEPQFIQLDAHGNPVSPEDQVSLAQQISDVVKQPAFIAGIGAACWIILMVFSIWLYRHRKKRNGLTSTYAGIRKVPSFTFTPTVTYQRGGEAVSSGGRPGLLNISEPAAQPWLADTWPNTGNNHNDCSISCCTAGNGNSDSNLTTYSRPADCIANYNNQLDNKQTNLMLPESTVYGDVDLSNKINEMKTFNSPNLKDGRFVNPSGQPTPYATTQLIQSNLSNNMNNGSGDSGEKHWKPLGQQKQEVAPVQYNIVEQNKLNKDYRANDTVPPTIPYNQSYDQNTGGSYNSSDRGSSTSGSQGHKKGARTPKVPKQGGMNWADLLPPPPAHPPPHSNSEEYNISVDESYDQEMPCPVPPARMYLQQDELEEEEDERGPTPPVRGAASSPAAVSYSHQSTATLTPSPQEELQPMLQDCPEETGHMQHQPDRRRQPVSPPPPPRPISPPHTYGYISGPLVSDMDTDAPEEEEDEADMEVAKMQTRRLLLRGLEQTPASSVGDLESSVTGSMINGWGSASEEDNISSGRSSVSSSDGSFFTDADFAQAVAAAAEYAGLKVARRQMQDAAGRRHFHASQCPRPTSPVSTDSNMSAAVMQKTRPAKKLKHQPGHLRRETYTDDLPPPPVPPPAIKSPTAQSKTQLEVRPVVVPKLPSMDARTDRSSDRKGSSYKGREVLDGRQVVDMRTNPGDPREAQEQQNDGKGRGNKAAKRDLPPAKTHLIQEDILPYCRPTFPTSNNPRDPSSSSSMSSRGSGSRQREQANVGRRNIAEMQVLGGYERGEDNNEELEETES

Fold Selectivity for RSK/KSR [2]: > 100 fold
B1: 93H2 (antibody, human IgG1, kappa, V domains shown)
VH: EVQLVQSGAEVKKPGASVKVSCKASGYTFTGYYMHWVRQAPGQGLEWMGWINPNSGATNFPQKFQGRVTMTRDTSITTAYMDLSRLRSDDTAVYYCARESGDDAFDIWGQGTMVTVSS
VL: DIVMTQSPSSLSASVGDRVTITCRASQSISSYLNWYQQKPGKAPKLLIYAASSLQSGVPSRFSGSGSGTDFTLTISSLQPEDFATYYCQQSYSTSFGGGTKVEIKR
notes: also called parental 93H2; 93H2 mAb
binding result [1]: no binding

B2: Abcs35 (antibody, human IgG1, kappa)
heavy: EVQLVQSGAEVKKPGASVKVSCKASGYTFTGYYMHWVRQAPGQGLEWMGWINPKNGDTEFPQKFQGRVTMTRDTSITTAYMDLSRLRSDDTAVYYCARESGDDAFDIWGQGTMVTVSSASTKGPSVFPLAPSSKSTSGGTAALGCLVKDYFPEPVTVSWNSGALTSGVHTFPAVLQSSGLYSLSSVVTVPSSSLGTQTYICNVNHKPSNTKVDKKVEPKSCDKTHTCPPCPAPEAAGAPSVFLFPPKPKDTLMISRTPEVTCVVVDVSHEDPEVKFNWYVDGVEVHNAKTKPREEQYNSTYRVVSVLTVLHQDWLNGKEYKCKVSNKALPAPIEKTISKAKGQPREPQVYTLPPSREEMTKNQVSLTCLVKGFYPSDIAVEWESNGQPENNYKTTPPVLDSDGSFFLYSKLTVDKSRWQQGNVFSCSVMHEALHNHYTQKSLSLSPGK
light: DIVMTQSPSSLSASVGDRVTITCRASQSISSYLNWYQQKPGKAPKLLIYAASSLQSGVPSRFSGSGSGTDFTLTISSLQPEDFATYYCQQSVGLFFGGGTKVEIKRTVAAPSVFIFPPSDEQLKSGTASVVCLLNNFYPREAKVQWKVDNALQSGNSQESVTEQDSKDSTYSLSSTLTLSKADYEKHKVYACEVTHQGLSSPVTKSFNRGEC
notes: fully human IgG1; VH of Ab96 with VL of Ab123
koff [3]: 0.00793 s⁻¹

B3: Abcs35-J (antibody, human IgG1, kappa)
heavy: EVQLVQSGAEVKKPGASVKVSCKASGYTFTGYYMHWVRQAPGQGLEWMGWINPKNGDTEFPQKFQGRVTMTRDTSITTAYMELSRLRSDDTAVYYCARESGDDAFDIWGQGTMVTVSSASTKGPSVFPLAPSSKSTSGGTAALGCLVKDYFPEPVTVSWNSGALTSGVHTFPAVLQSSGLYSLSSVVTVPSSSLGTQTYICNVNHKPSNTKVDKKVEPKSCDKTHTCPPCPAPEAAGAPSVFLFPPKPKDTLMISRTPEVTCVVVDVSHEDPEVKFNWYVDGVEVHNAKTKPREEQYNSTYRVVSVLTVLHQDWLNGKEYKCKVSNKALPAPIEKTISKAKGQPREPQVYTLPPSREEMTKNQVSLTCLVKGFYPSDIAVEWESNGQPENNYKTTPPVLDSDGSFFLYSKLTVDKSRWQQGNVFSCSVMHEALHNHYTQKSLSLSPGK
light: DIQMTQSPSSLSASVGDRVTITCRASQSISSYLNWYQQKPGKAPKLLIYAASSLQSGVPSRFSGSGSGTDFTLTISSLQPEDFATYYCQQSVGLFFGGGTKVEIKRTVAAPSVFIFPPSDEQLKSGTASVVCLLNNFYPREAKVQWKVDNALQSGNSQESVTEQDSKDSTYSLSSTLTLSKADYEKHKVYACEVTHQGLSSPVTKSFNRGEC
notes: germlined variant of Abcs35; also called ABCS-J
binding result [4]: no binding (tested: last point just below 10^1 nM)
